In the supplement of paper PMC10567573:
± gives the standard deviation.

Assay: protein stability index of a GFP-peptide fusion (GPS, HEK-293T) (PSI 1-6); higher = more stable
Details: c terminus: a fixed tail appended
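Further: 24-mer peptide tiles fused after GFP, lentivirally expressed, FACS-sorted into six equal bins by GFP/DsRed ratio, decoded by Illumina sequencing, PSI is the read-weighted mean bin number.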

Sequence | protein stability index (treatment: DMSO) | protein stability index (treatment: MLN4924 1 uM, 8 h)
APDLVLNAEMVQQTTYLEDRPMFM [LOXL2] | 3.25 ± 0.18 | 3.43 ± 0.17
LARKIASRNEFDRTIAETEAAYLK [SSNA1] | 3.57 ± 0.23 | 3.74 ± 0.3
NPNLSNRRGSTPLHMAVERRVRGV [RIPK4] | 3.84 ± 0.56 | 4.47 ± 0.65
AEVRHEIQDGTIHLYIYSIHSIPK [KMT2E] | 2.1 ± 0.76 | 1.51 ± 0.14
VVPPTPPVVKKKGVKRKADTTTPT [BRD3] | 4.9 ± 0.39 | 4.82 ± 0.31
DSGFLGLRPTSVDPALRRRRRGPR [NOP53] | 5.15 ± 0.4 | 5.17 ± 0.25
RENSKPRAILKPRKVCVGGKRRKD [PPP2R2B] | 4.73 ± 0.35 | 4.89 ± 0.34
GPVGTDFKPLNSTPATTTEPPKPT [ZNF207] | 5.24 ± 0.21 | 5.19 ± 0.23
NSESWGWDIGRGKLYHQSKGPGAP [SPSB2] | 3.63 ± 0.17 | 3.98 ± 0.25
SEEAVQKLATCYFFTVEFGLCKQD [TPH1] | 2.3 ± 0.61 | 2.27 ± 0.13
MRAQAQEQERRERREQAAAAPFPS [TFE3] | 5.09 ± 0.26 | 4.91 ± 0.22
EKEVLRRERAVEWRERAVEKRERA [ZBED2] | 4.93 ± 0.44 | 4.95 ± 0.27
RQNVPRKVPNHYIAIPEWFLSENA [CPXM2] | 2.82 ± 0.23 | 3.05 ± 0.5
RYRGLGLLASVPSNPNGNGGFMGY [CRY1] | 2.53 ± 0.14 | 2.91 ± 0.19
AQVLMLGQILELPWKEETFLVLQS [FANCE] | 2.47 ± 0.33 | 2.65 ± 0.67
QTVGVGRGRFTTYEIRVKTNLPIF [SNX3] | 2.83 ± 0.067 | 3.02 ± 0.22
VDDKFGTGTKKVTRILDGGNPFLD [PSD2] | 4.18 ± 0.051 | 4.23 ± 0.25
IKECLSKGTFSDVTFKLDDGAISA [RHOBTB1] | 3.67 ± 0.18 | 3.95 ± 0.19
RVLRQPRPALAQQAQGARAGGSAR [GMCL1] | 5.03 ± 0.23 | 4.93 ± 0.19
RFQLLYVACGMVHLLIPELGACVA [DNAAF3] | 2.97 ± 0.17 | 3.39 ± 0.44
NAFQETWYWHGDVNSNKVVMSGVK [LOXL2] | 2.75 ± 0.31 | 2.84 ± 0.48
GVRESETEQGFGEDLEDLGAVAPP [NFE2L1] | 5.763 ± 0.026 | 5.9 ± 0.1
LDQLLHYRKKSAEFPDFYDSEEPV [CHGB] | 3.96 ± 0.34 | 4 ± 0.15

Sequence | protein stability index (treatment: DMSO) | protein stability index (treatment: MLN4924 1 uM, 8 h)
FFGMAFNFIVNDSRKKPIWNVLMW [SOAT1] | 2.6 ± 0.55 | 2.19 ± 0.73
AMVWALDLDDFAGFSCNQGRYPLI [CHIT1] | 2.5 ± 0.56 | 2.65 ± 0.63
EKQMEEKRRANQKSSAQGPIPWFL [PPEF2] | 3.71 ± 0.17 | 3.68 ± 0.32
DITRYYLCLQLRDDIVSGRLPCSF [EPB41L3] | 2.97 ± 0.57 | 2.63 ± 0.5
NPFKERICRVFSTSPAKDSLSFED [CIB1] | 2.77 ± 0.21 | 2.75 ± 0.2
PLLKDEGFAVKALWGRTQEEAEEL [GFOD1] | 5 ± 0.62 | 4.915 ± 0.038
EAIPILRAALKLEPSNKTIHAELS [FKBP8] | 2.49 ± 0.32 | 2.65 ± 0.14
QSLTEDLEFRKSMYEEEINETRRK [LMNB1] | 4.99 ± 0.26 | 5.04 ± 0.18
LALFPLLPKVLQKYWCVTATRVAP [ZBED1] | 2.98 ± 0.3 | 2.94 ± 0.94
LVVASGVIYCLGGYDGLNILNSVE [KLHL12] | 3.28 ± 0.25 | 3.03 ± 0.16
SQAPVNKPKKKKEKKEKEKKKKDK [BRD3] | 5.32 ± 0.32 | 5.3 ± 0.32
REDNSGSDVLIGDILVLLGASLYA [SLC35F2] | 2.79 ± 0.18 | 2.99 ± 0.61
LCSSPLEAETPPNGPDCGYGSFHQ [ATE1] | 4.28 ± 0.18 | 4.24 ± 0.079
IGFGVYFEWTDSPNTAVSVHVSES [ACBD3] | 2.64 ± 0.9 | 2.95 ± 0.6
EVTDKEQEFAARAAKQLEYQQLED [EPB41L3] | 5.65 ± 0.27 | 5.62 ± 0.33
RIYSYQMALTPVVVTLWYRAPEVL [CDK4] | 2.98 ± 0.12 | 2.77 ± 0.47
AANKGEEKKDDENIPMETEETHLE [SMARCE1] | 5.64 ± 0.33 | 5.34 ± 0.42
VVAAVGKELIIFRLVAPTEGSLEW [WDR41] | 2.3 ± 0.21 | 2.37 ± 0.28
SWEGLAVLDSLLLTLLPQLQEAWQ [RSAD1] | 3.27 ± 0.35 | 3.22 ± 0.52
SWNSQSSLLDVQRVPSFESFEDDC [ETS2] | 4.84 ± 0.17 | 4.67 ± 0.13
ELLTGQPLWPGKSDVDQLYLIIRT [CDKL4] | 2.31 ± 0.69 | 2.24 ± 0.43
MEIMEAYSVARQFNLTPPICEQAE [KCNAB2] | 3.72 ± 0.18 | 3.65 ± 0.33
SGRSGHNTRGTGSSSSGVLMVGPN [CSNK1G3] | 4.13 ± 0.24 | 4.18 ± 0.16

Sequence | protein stability index (treatment: DMSO) | protein stability index (treatment: MLN4924 1 uM, 8 h)
KAKFCSTVANDVMLRTGLGVIRMW [NETO1] | 2.7 ± 0.51 | 2.27 ± 0.29
VAQLEDRRSTTDLRGTQFDYERGK [ZSWIM9] | 5.03 ± 0.18 | 5.07 ± 0.24
YNPDLKKVVEAHKIVLCAVSHVFM [RHOBTB3] | 2.95 ± 0.57 | 2.97 ± 0.26
LLFKYQMKEPITKAEILESVIKNY [MAGEA10] | 2.53 ± 0.32 | 2.74 ± 0.29
HHSRGNTNKFYMLDSRSTDRVLQW [KLHDC2] | 2.65 ± 0.39 | 2.72 ± 0.19
LPIFTPAKMGATKEEREDTPIQLQ [TCAP] | 4.7 ± 0.089 | 4.72 ± 0.088
AASVRMRGEAEAFAIGARARAEAE [FLOT1] | 5.32 ± 0.17 | 4.96 ± 0.23
QRAPQLPTWWPLPTQVPAAEDYLT [SPAG8] | 3.12 ± 0.2 | 3.23 ± 0.21
PFREQSFLCAAGDAGEESRVQVLK [TIAF1] | 4.54 ± 0.25 | 4.6 ± 0.16
NSNGGNLNSPPGPHSAKTEEHTTI [CDC14A] | 5.28 ± 0.17 | 5.49 ± 0.2
MITVQLPEVPANENIKGYYIIIVP [PTPRD] | 3 ± 0.77 | 2.99 ± 0.62
DWGPCSGSCGQGRTIRHVYCKTSD [ADAMTSL2] | 3.43 ± 0.25 | 3.44 ± 0.33
FFNTLHVGGTIRTCQKFLIQYNRR [POP5] | 2.02 ± 0.19 | 2.06 ± 0.23
GTELIQTPLASSTDHQTPPTSPVQ [HDAC6] | 5.11 ± 0.33 | 5.25 ± 0.29
FDRVDENNPEYLRERNMAPDLRQD [ADD1] | 5.1 ± 0.064 | 5.32 ± 0.25
EDVPLAAKLVDLPCVIESLRTLDK [TAF7L] | 3.64 ± 0.29 | 3.48 ± 0.21
LLDRARGAAAQGQTQTVAAQAQAL [PI4K2A] | 4.3 ± 0.29 | 4.38 ± 0.2
QGHLRRLRSRYSVASFKFDAGEVS [MYORG] | 2.93 ± 0.26 | 3.27 ± 0.33
GLSQAPQPLADEGPPGRSIGGAAP [SERTAD1] | 5.05 ± 0.31 | 5.29 ± 0.21
RDHHSTHYRASEEEPEYGEEIKGY [CHGB] | 5.1 ± 0.25 | 5.05 ± 0.13
RFHDPSPAQSHTLQANDVFHKQQW [NET1] | 3.33 ± 0.11 | 3.4 ± 0.29
KARSNSTLSKSEYMVIEEGGMNHS [KCNA3] | 4.57 ± 0.38 | 4.33 ± 0.15
TPNSAGGPGAHILRRKSPASGQGP [ADAMTS4] | 4.55 ± 0.15 | 4.93 ± 0.28

Sequence | protein stability index (treatment: DMSO) | protein stability index (treatment: MLN4924 1 uM, 8 h)
EENALWEEERAFWMENNGHVAGEQ [CCDC70] | 4.99 ± 0.22 | 5.29 ± 0.13
QEHKTDEMHTALMEACMDGHVEVA [ANKRD17] | 5.19 ± 0.4 | 5.31 ± 0.21
RALDRLQEVPHEGPMCDLLWSDPD [PPP2CA] | 4.42 ± 0.34 | 4.66 ± 0.17
GFSCNQGRYPLIQTLRQELSLPYL [CHIT1] | 2.16 ± 0.33 | 2.4 ± 0.24
HYGGVVSLIPLILDLMKEWIAHSE [SPACA9] | 3.02 ± 0.46 | 2.23 ± 0.46
HSFFPDAFDYNSLSPTQRQKNFEL [SMTNL2] | 3.35 ± 0.19 | 3.44 ± 0.4
RTAQSEETRVWHRRDGKWQIVHFH [CAMK2A] | 3.15 ± 0.16 | 3.12 ± 0.26
LVWRNSIRSSFISSLSFFLKKMGK [FBXO39] | 2.65 ± 0.65 | 2.9 ± 0.46
GTVHCQIVSTQITRPSGNNGNRRR [PHTF1] | 4.25 ± 0.18 | 4.51 ± 0.21
VQNGTYLQRVLQNCPWPMSCPGSS [EMID1] | 2.12 ± 0.36 | 3.17 ± 1.1
GNFPTMEVKPKDIIHVVKDQLIGQ [TENT5D] | 4.08 ± 0.33 | 3.98 ± 0.35
DVQNKLKESAQCVGDEFLNCKLAT [SNX8] | 3.43 ± 0.21 | 3.42 ± 0.24
SAPHLENSGHTIFNDPFFIVETVC [KCNA4] | 2.43 ± 0.23 | 2.46 ± 0.38
CEKTFRDKNTLKDHMRKKQHRKIN [ZNF277] | 3.77 ± 0.21 | 3.71 ± 0.31
QDLAFWYGPRWQEVIPYTPAMQRY [HMOX1] | 2.29 ± 0.2 | 2.36 ± 0.33
ERAIETLIKNFHQYSVEGGKETLT [S100A14] | 3.53 ± 0.23 | 3.41 ± 0.22
QVSPVRRAPSRRHGVRAKVQPQAR [CPN1] | 4.88 ± 0.12 | 4.68 ± 0.13
DNIKYQPKGGQVQIVTKKIDLSHV [MAP2] | 3.34 ± 0.38 | 3.47 ± 0.3
ALCELLEKETQIIASIGRHRYIAY [IQUB] | 2.25 ± 0.3 | 2.16 ± 0.24
HYANLNGLYGSTVDHQGVSWYHWK [TNXB] | 2.5 ± 0.14 | 2.8 ± 0.66
